Data set [1] addresses HA-fused Atg1(593-830) (S. pombe, UniProt Q9Y7T4 593-830). In words: pull-down.
Data set [2] deals with the molecule itself. The data set is described as follows: SEC. Background: In gel filtration, larger molecules generally elute earlier.

The record followed here is PMC7511232 (eLife, 2020).

Usually stoichiometry N stands for a count of units in the complex or per binding partner.

Sequence of HA-fused Atg1(593-830) (Q9Y7T4 593-830): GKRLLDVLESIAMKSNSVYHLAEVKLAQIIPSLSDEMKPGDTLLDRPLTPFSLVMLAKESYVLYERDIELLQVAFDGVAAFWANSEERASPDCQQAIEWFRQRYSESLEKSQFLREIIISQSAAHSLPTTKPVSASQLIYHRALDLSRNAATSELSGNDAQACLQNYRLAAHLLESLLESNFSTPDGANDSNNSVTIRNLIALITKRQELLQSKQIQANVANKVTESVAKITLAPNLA

On to SSQPFYRVSPSIVPLNVIRKLTN (domain or fragment, S. pombe, UniProt O14261 522-544, looked up) [GST-fused Atg11(522-544)], for which, in data set [1], the binding result is on record as “binds”.

B1: MBP-Atg11(522-583) (domain or fragment, S. pombe, UniProt O14261 522-583, looked up)
chain: SSQPFYRVSPSIVPLNVIRKLTNRKTSFTDSHILRLQDEVNQLRNELDLVNKRNEDLLIELQ
With B1, the “stoichiometry N” value in data set [2] worked out at 2.
